The values that follow come from the DeepSol protein solubility set.

The data set in a line: soluble on expression in E. coli; label from the status in PepcDB or PDB records.
Turning to “MIRYWKLLFSLAVASVLLVGCGTKEHETTQAAKEEQTADDQKPSSDAPSSKNPSPSKEAKEQTSTKKNEEEQRAAGGGQPAASQPTISLSYQDGNQTVTKTATLQTSNNQHFSLYVLEGWTLDAEEPGADVLLHGDAFARIRLLSEGETNYEQLAQEHAQAVDANAARQQTNGLPKPFADAVWYTAQADGVTVHVIASAQPTPMLLTVHAPSNEDVLGAVLAMAATLQKQ”, the “soluble on expression in E. coli” value is reported as “not soluble”.

Turning to “MITRDFFLFLSKSGFLNKMARNWGSRVAAGKIIGGNDFNSSIPTIRQLNSQGLSVTVDHLGEFVNSAEVARERTEECIQTIATIADQELNSHVSLKMTSLGLDIDMDLVYENMTKILQTAEKHKIMVTIDMEDEVRCQKTLDIFKDFRKKYEHVSTVLQAYLYRTEKDIDDLDSLNPFLRLVKGAYKESEKVAFPEKSDVDENYKKIIRKQLLNGHYTAIATHDDKMIDFTKQLAKEHGIANDKFEFQMLYGMRSQTQLSLVKEGYNMRVYLPYGEDWYGYFMRRLAERPSNIAFAFKGMTKKLEHHHHHH”, the “soluble on expression in E. coli” value is reported as “soluble”.

With “TGASNYYIIFTSGTTGVPKGVQISHDNLVSFTNWLLQDFGLEEGARFLAQAPYSFDLSVMSIYPALALGGSLTPLPNEIINDFKQLFTRLPQLTIDVWVSTPSFIELCLMEPSFDGEHLPALRTFLFCGEELPKPTAEKLAARFPTAHIYNTYGPTEATVAISAIEITQEVLKSVQ”, the “soluble on expression in E. coli” value was “not soluble”.

Take “MGHHHHHHSHGTRSKLSRHGSGADSDYENTQSGDPLLGLEGKRFLELGKEEDFHPELESLDGDLDPGLPSTEDVILKTEQVTKNIQELLRAAQEFKHDSFVPCSEKIHLAVTEMASLFPKRPALEPVRSSLRLLNASAYRLQSECRKTVPPEPGAPVDFQLLTQQVIQCAYDIAKAAKQLVTITTREKKQ”: the “soluble on expression in E. coli” value was “soluble”.

For the sequence “MGSDKIHHHHHHKLRDEGDAALKAKDYATVVTKYGEYLKQNNYQDTARIFNCGYAANQAKNYAEAAKYFDMAVKMNYNVDDSYVGEAMAYRNLNKTEEFLTTVKEGLKVIPDGNKNKTNLEKLLYGYCIKQGQAAQKKGDLAGAEKMYKEVLAVSNKDYQSNAYYSLGAMLYGNGAKILQAATPIATSEPDKYNAEKAKADKDFKQAKEYLTKAVELDPKDENSKKILASINDILK”, the “soluble on expression in E. coli” value is given as “not soluble”.

Consider “MSLDRVEVLGVEFVEFTADQTEAEALGSLLGAMGFRAVASHREKAVTLWRQGCDHRGINVVINTEQKGFAHSSYLVHGASAYAIGLKVPDASAAVERARALGAEIFLPESGEGEGAMAAIRGMGGGLIYFVDEIDDVWSREFVAPGDDRQPAATLVAIDHVAQSMKEEQLPSWLLFYTSILDADKLAQVDIVDPAGLVRSQVVENASGTLRLTLNGADNHRTLAGHFIAESFGSGVQHVAFRTDDIFEAAEHMRRSGFRALAISRNYYDDIEVRFALEPGFVDRLRDENILYDRDEDGEYFQIYGPTFGEGFFFEIVERRSGYRGYGAANAPFRIAAQKRCLRPAGMPAEGSSRVDLQVCRPKKGIITITTDPNSSSVDKLAAALEHHHHHH”, for which the “soluble on expression in E. coli” value was “soluble”.

Regarding “MGSDKIHHHHHHMSLSAEQIVEYRAFAEQLADAAAAAIAPYFRASLDVEDKGGRLYDPVTVADKAAEDAMRELIQARYPEHGILGEEAGIAVGSSPLTWVLDPIDGTRAFITGLPLWGTLIALNDGARPVLGVMNQPFTGERFVGTPAGAWRSGTPLKTRACADLSAATLMCTTPDMFDTAERKAAFEAVAGKARLMRYGGDCYAYCMLASGFVDVIVEASLQPYDVQALMPIIEGAGGVITAWDGSSAQDGGCVVACGDPVLHAQVLEMLRHAM”, the “soluble on expression in E. coli” value is listed as “not soluble”.

Turning to “MGSDKIHHHHHHMDTVNYTHHLSTFVDVVRAGSFSAVARRQGMKPSSIARKIDMLEDYFGAALFVRSTRALMLTDVGEVLVARAEVILNELNAMRVEIKSIKDNLDGPLRISCLPTFGKLHILPWLPKLRENFPRMTVELDLTERIANPSIERLDAVLRIGPLNDSGLYAKTIGVQRWLVCASPAYVGRSGKPAGWSQLAGHAIVDKLHDPAGICWHGALDPQQYSAMSIGFRCNDFDGLRQAALGGLGLAYLPDWVALPDITAGRLVKLFDDSKRGDEPISLLRASSKPSARLQIFHDALLDHLRKFSETGYGVE”, the “soluble on expression in E. coli” value is “not soluble”.

On to “AIAADSAVRGPPGMGGTSTDNMDSVVQGDRRPGSHKGFVEEMRFVAMRLHTRDQAKEGTLEESALPIQEWQPSQQDYLQFLVDSKHVYDFFENFMNQSQDNMFVNFRRTGLERVSALEEDLDWFRQRGFSIPKPEKPGVAYVEYLQSLVQDKPHALLCHWYNFYFAHTAGGRMIGRLMSKLLFDGHVFEFYKWEGDVKQILDQVRVKIDETARDWPREVKDECLKETGLSFSYSGTILGHLAKRG”, for which the “soluble on expression in E. coli” value was “soluble”.

For “MSNIKKYIIDYDWKASIEIEIDHDVMTEEKLHQINNFWSDSEYRLNKHGSVLNAVLIMLAQHALLIAISSDLNAYGVVCEFDWNDGNGQEGWPSMDGSEGIRITDIDTSGIFDSDDMTIKAA”, the “soluble on expression in E. coli” value is listed as “soluble”.

For “NLNKVKFTEEHAIEVTNWKYEGKYSIYNLPPWEEIKKKNFSLAKEDKRKNFISFINDNKELIGFINLLDEGSSVFFGIGMKPNYCGMGIGKEIISLRLQECRNKYSTKPIVLNVRTWNMRAVKCYESQGFKIVETKVQKTH”, the “soluble on expression in E. coli” value is given as “not soluble”.

As for “MGSDKIHHHHHHMKGQSKKALTKKRIEEAALSLFREQGYDSTTVQEITAKAQVAKGTFFNYFPTKESIMRSLAEDRLHSVSVYMEQRHIQSLPILKKIRTYLSYLLEEYDSHPKLTVQIWRHVVEFEEMILSHWVVLLEEAKERGELSEDFPIHVWSHIIHSHVCYGLQMSHLAPTKAQLLAKVMPLLEESLSAIIQKRGNSAMKKLVVLGGGYGGMRILQRLLPNDLPSDWEITLVDRLPYHCLKTEYYALAAGTASDHHLRVSFPEDPRLSTRYGSVSSIDLASKTVLFEEGEPLTYDTLIIGLGCEDKYHGVPGAKEHTYSIQSMEATRRTYEALNNVRPEGVVTIVGAGLSGVELASELRESRPDLTIKLLDRGDIILSMFPRRLSNYVQNWFIDHGVDIINKSNVTKVEEGAVYNHDERIESDAIIWTAGIQPNVVVRNLDVEKDQQGRVVLTPHHHLPTDEDVFVVGDCASLPHAPSAQLAEGQAEQIVTVLKKRWNNESLPDEFPRIKLKGVLGSLGKKHGFGLMGERTLIGRVPRVLKSGVLWMYKYHSG”, the “soluble on expression in E. coli” value is given as “not soluble”.

As for “MSEISQLTPQPLWQFFDKICSIPHPSKHEEALAQYIIEWATTEGLDVRRDPTGNVFIKKPATPGMEDRKGVVLQAHIDMVPQKNEDTEHDFTKDPIQPYIDGEWVTAKGTTLGADNGMGMASCLAVLASKELKHGPLEVLLTIDEEAGMTGAFGLEAGWLEGDILLNTDSEQEGEVYMGCAGGADGAIKLDIEREALPSGYITRQITLKGLKGGHSGCDIHTGRGNANKLLGRFLAGHAQELDLRLVEFRGGSLRNAIPREAFATIAVPAENEAKLAELFTFYTNLLKDELGKVETDIVSFNETASAEQVLTKITQSRFIATLNACPNGVIRMSDDIEGVVETSLNVGVITTDENSITILCLIRSLMDSGRSMVEGMLSSVAELAGAQVTFSGTYPGWKPDADSEIMHVFRDVYEGIYGNKPNIMVIHAGLECGLFKKPYPEMDMISFGPTIKFPHSPDEKVKIDTVALYWEQMVAILENIPKKLEHHHHHH”, the “soluble on expression in E. coli” value is given as “soluble”.

Regarding “MISPELVKEALKKKKVRSEEAFGLEYLRFNDDYKDIPRGTAIFKDFIIWGYPHIGRIFLLETGLREQFEAPFWVEEKVDGYNTRIFKYGDNYYALSRGGFICPFTTDRLPDLIDLRILDENPDLVICAEVAGPENPYIEESPPYVKEDVQLFVFDFMKKNEQGFLSQEEKMELIEKYNLPHVEILGRFTASEEGIKKIKEILKRFNEEGREGVVFKEDSERNKRAKYITSYANLMDIKTNAKNMLQLPPEYYTNRILRLVLFMYEEGLKTTEHLYEELGRAFIDGLFQAIEQFEKEHKVYKTFTCKFRKKENAIALLELLSKTSKHIQVKERRLEKEGDYWRLEFDKVFLNMTGLLGHLLSGGIVYD”, the “soluble on expression in E. coli” value is “soluble”.

As for “MGSDKIHHHHHHMWVCGLGVIRFGPAGKPVEFKGDIVKVPEFLRSIGLDALEYEAVRGVRISEAKARRLGEAARENGVILSMHAPYYVNLSSPDDSVVERSIKRLYDSMIASEWMGSYAVVVHPGYYKGLKSREEAVKRVIEALNRLIESLPSWVKTPWIAPETMGKQSQVGSLEETVEICLNTPRCRPCVDWAHLYARAEGKFVTSVDQVVKAIEYIESNLGREAVDPLHTHFSKIEYGKGGERMHHTLREEGYGPDWRIVCRAYKETGINAVVISESPILEKDALLMKSICKGEA”, the “soluble on expression in E. coli” value is reported as “not soluble”.

Consider “NLKVKGARDVFEYMKGRIPDETKEHLFVLFLSTKNQILRHETITIGTLTASLIHPREIFKAAIRESAHSIILVHNHPSGDVQPSNADKQVTSILKKAGDLLQIELLDHVIVGNNDWFSFRDHALL”, for which the “soluble on expression in E. coli” value is recorded as “soluble”.

Take “MSCVQQQRRSTGLRIAERLNKYITLPNRHSFTVDSKDVFQRGQVLSYIRSKAPFLLEHISEAKERLITVTSRGLMIIYENDDHGLVIDLRSARNVLCTADRSKKQRHFRCHIKIRMQRGNVHLFVGHNDVHKWTCAIMRAAGKCLPSTEPRDDGSLNVAMMTAVEDSGIFEEMSSTSSASYDYDEDDEVDEVKPTAIEQIPLPHVSVRSLRQKLEKELVLKPKEQVLAEQQHKANCDEPSFVSEIFCTPRAVFSDETVVLLEPTNARERREYEAQADRENQWWTRSLRC”: the “soluble on expression in E. coli” value is given as “not soluble”.

For the sequence “MTQMKIFVIGAHGQIGKKIVSKLVAQGDQVYAGIRQPEQAEAFEDAGAQPVQFNLMAQPEDLALAFNGMDAIVFAAGSGGQTGYDMTLMIDLDGAVKSMVAAKIAGVKRYVIISAEFTPDRSRWPRALQPYYVAKYYADEWLKNRTQLDYTILQPGTLINDAGTGKVTVNPDVGGEITRDDVATFTVQTLHTPATVGKTIALINGDTPISKAVQQA”, the “soluble on expression in E. coli” value was “not soluble”.
